Values quoted from earlier work in publication PMC8634938.

Key:
IL-22R (Homo sapiens) = IL-22R (Homo sapiens) (UniProt Q8N6P7)
IL-22BP (Homo sapiens) = IL-22BP (Homo sapiens) (UniProt Q969J5)
Chain of UniProt Q969J5 (Q969J5 22-263): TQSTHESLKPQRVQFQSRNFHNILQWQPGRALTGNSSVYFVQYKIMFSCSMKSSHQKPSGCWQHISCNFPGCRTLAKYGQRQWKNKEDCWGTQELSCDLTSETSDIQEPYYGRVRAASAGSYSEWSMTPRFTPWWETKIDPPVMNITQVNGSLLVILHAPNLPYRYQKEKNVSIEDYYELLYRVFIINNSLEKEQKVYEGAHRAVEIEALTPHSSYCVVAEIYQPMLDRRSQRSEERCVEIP

Chain of UniProt Q8N6P7 (Q8N6P7 16-228): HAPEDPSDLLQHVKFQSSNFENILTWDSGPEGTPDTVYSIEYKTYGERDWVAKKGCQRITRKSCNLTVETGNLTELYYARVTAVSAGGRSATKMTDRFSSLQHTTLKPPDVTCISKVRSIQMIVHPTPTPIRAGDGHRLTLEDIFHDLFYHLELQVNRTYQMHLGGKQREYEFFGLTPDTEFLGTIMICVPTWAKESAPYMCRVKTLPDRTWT

Kd (IL-22R (Homo sapiens)): 20 nM
Kd (IL-22BP (Homo sapiens)): 0.001 nM
Substance: IL-22 (from UniProt Q9GZX6)
